Experimental findings from article PMC10303918 are described below.

The target of this assay is recombinant human CA125 (rhCA125) (human) (UniProt Q8WXI7).

Consider “recombinant human mesothelin Fc fusion (hrMSLN-Fc) (from UniProt Q13421 296-598)”, for which the adhesion of GFP-MSLN transfected HEK 293 T cells on an OVCAR-3 (MSLN+, MUC16+) monolayer in the presence of 1 uM Nb A1; percent of adhesion blocked was over 90%.
